Results: patent US8460910B2 (Illumina Cambridge Limited, priority 2003, dated 2013)

System: 3′ modified nucleotide
Assay: Gel-based incorporation assay of Example 2, two cycles of enzymology on bead-bound 32P-labelled DNA template
Format: biochemical
Description: The mutant polymerases were assessed for their ability to incorporate a 3′ blocked nucleotide analogue using a gel-based assay as described in generic form in Example 1. The rates of incorporation of the modified nucleotides were compared to purified forms of related DNA polymerases in both a single round of incorporation and through two rounds of nucleotide incorporation. The DNA template that was used for these experiments was a commercially-synthesised biotinylated oligonucleotide.
The method for two cycles of incorporation involves the binding of the DNA primer-template to streptavidin-coated beads (Dynalbeads). These are prepared as follows: • Resuspend beads in storage pot by pipetting up and down Take 20 μL beads • Wash 3×200 μL TE buffer (10 mM Tris HCl pH 7.5, 1 mM EDTA) Add 50 μL B&W buffer (5 mM Tris HCl, pH 7.5; 1M NaCl, […]) • 25 μL H2O • 25 μL of ^32P-labelled biotin DNA template (final concentration of 100 nM)
The first cycle of enzymatic incorporation is performed on these beads as follows:
Incorporation mix 1 is added to the bead pellet from above.
Reactions are incubated at 45° C. for 15 minutes
The first cycle of enzymology is then deblocked by treatment with tri(carboxyethyl) phosphine (TCEP) as follows:
Add 65 μL TCEP (100 mM) in water and incubate at 65° C. for 15 minutes
After removal of the TE buffer, a second cycle of enzymatic incorporation is then performed by the addition of incorporation mix 2, as follows:
Take 5 μL samples out at ½, 1, 2, 4, 10, 30, 60 mins and add to gel loading buffer with EDTA.
Heat all samples to 95° C. for 10 mins and load 3 μl on a 12% acrylamide gel (Sambrook and Russell, 2001).
Time (mins) to 50% product conversion on second cycle of enzymology at 45° C., 50 mM Tris, pH 8, 4 mM MgSO4, 0.05 (v/v) Tween, 50 μg/ml enzyme, and 2 μM 3′ modified nucleotide. Time to 50% product conversion on first cycle of incorporation shown in parentheses. For other mutants the time to 50% conversion on the first cycle was not measured in these experiments

[1] = 45° C., 50 mM Tris, pH 8, 4 mM MgSO4, 0.05 (v/v) Tween, 50 μg/ml enzyme, 2 μM 3′ modified nucleotide

Row | Molecule | Time (mins) to 50% product conversion on second cycle of enzymology [1] | incorporation of 3′ modified nucleotide analogues compared to 9° N DM (Y409V/A485L) (region A variants, conditions of Example 2) | Time to 50% product conversion on first cycle of incorporation (45° C., 50 mM Tris, pH 8, 4 mM MgSO4, 0.05 (v/v) Tween, 50 μg/ml enzyme, 2 μM 3′ modified nucleotide, first cycle (in parentheses))
1 | YAS: 9° N polymerase mutant, motif A region YAS, also A485L; SEQ ID NO: 20 (protein, 9oN polymerase variant (exo-) with L408Y/Y409A/P410S mutations) MILDTDYITENGKPVIRVFKKENGEFKIEYDRTFEPYFYALLKDDSAIEDVKKVTAKRHGTVVKVKRAEKVQKKFLGRPIEVWKLYFNHPQDVPAIRDRIRAHPAVVDIYEYDIPFAKRYLIDKGLIPMEGDEELTMLAFAIATLYHEGEEFGTGPILMISYADGSEARVITWKKIDLPYVDVVSTEKEMIKRFLRVVREKDPDVLITYNGDNFDFAYLKKRCEELGIKFTLGRDGSEPKIQRMGDRFAVEVKGRIHFDLYPVIRRTINLPTYTLEAVYEAVFGKPKEKVYAEEIAQAWESGEGLERVARYSMEDAKVTYELGREFFPMEAQLSRLIGQSLWDVSRSSTGNLVEWFLLRKAYKRNELAPNKPDERELARRRGGYAGGYVKEPERGLWDNIVYLDFRSYASSIIITHNVSPDTLNREGCKEYDVAPEVGHKFCKDFPGFIPSLLGDLLEERQKIKRKMKATVDPLEKKLLDYRQRLIKILANSFYGYYGYAKARWYCKECAESVTAWGREYIEMVIRELEEKFGFKVLYADTDGLHATIPGADAETVKKKAKEFLKYINPKLPGLLELEYEGFYVRGFFVTKKKYAVIDEEGKITTRGLEIVRRDWSEIAKETQARVLEAILKHGDVEEAVRIVKEVTEKLSKYEVPPEKLVIHEQITRDLRDYKATGPHVAVAKRLAARGVKIRPGTVISYIVLKGSGRIGDRAIPADEFDPTKHRYDAEYYIENQVLPAVERILKAFGYRKEDLRYQKTKQVGLGAWLKVKGKK | 1.5 min | best incorporation rate | 
2 | FAI: 9° N DM-derived polymerase with amino acids 408-410 FAI (protein, UniProt Q56366 1-775, looked up, variant D141A E143A L408F Y409A P410I A485L) DNA polymerase: MILDTDYITENGKPVIRVFKKENGEFKIEYDRTFEPYFYALLKDDSAIEDVKKVTAKRHGTVVKVKRAEKVQKKFLGRPIEVWKLYFNHPQDVPAIRDRIRAHPAVVDIYEYDIPFAKRYLIDKGLIPMEGDEELTMLAFAIATLYHEGEEFGTGPILMISYADGSEARVITWKKIDLPYVDVVSTEKEMIKRFLRVVREKDPDVLITYNGDNFDFAYLKKRCEELGIKFTLGRDGSEPKIQRMGDRFAVEVKGRIHFDLYPVIRRTINLPTYTLEAVYEAVFGKPKEKVYAEEIAQAWESGEGLERVARYSMEDAKVTYELGREFFPMEAQLSRLIGQSLWDVSRSSTGNLVEWFLLRKAYKRNELAPNKPDERELARRRGGYAGGYVKEPERGLWDNIVYLDFRSFAISIIITHNVSPDTLNREGCKEYDVAPEVGHKFCKDFPGFIPSLLGDLLEERQKIKRKMKATVDPLEKKLLDYRQRLIKILANSFYGYYGYAKARWYCKECAESVTAWGREYIEMVIRELEEKFGFKVLYADTDGLHATIPGADAETVKKKAKEFLKYINPKLPGLLELEYEGFYVRGFFVTKKKYAVIDEEGKITTRGLEIVRRDWSEIAKETQARVLEAILKHGDVEEAVRIVKEVTEKLSKYEVPPEKLVIHEQITRDLRDYKATGPHVAVAKRLAARGVKIRPGTVISYIVLKGSGRIGDRAIPADEFDPTKHRYDAEYYIENQVLPAVERILKAFGYRKEDLRYQKTKQVGLGAWLKVKGKK | 2.2 min |  | 
3 | FAP: 9° N DM-derived polymerase with amino acids 408-410 FAP (protein, UniProt Q56366 1-775, looked up, variant D141A E143A L408F Y409A A485L) DNA polymerase: MILDTDYITENGKPVIRVFKKENGEFKIEYDRTFEPYFYALLKDDSAIEDVKKVTAKRHGTVVKVKRAEKVQKKFLGRPIEVWKLYFNHPQDVPAIRDRIRAHPAVVDIYEYDIPFAKRYLIDKGLIPMEGDEELTMLAFAIATLYHEGEEFGTGPILMISYADGSEARVITWKKIDLPYVDVVSTEKEMIKRFLRVVREKDPDVLITYNGDNFDFAYLKKRCEELGIKFTLGRDGSEPKIQRMGDRFAVEVKGRIHFDLYPVIRRTINLPTYTLEAVYEAVFGKPKEKVYAEEIAQAWESGEGLERVARYSMEDAKVTYELGREFFPMEAQLSRLIGQSLWDVSRSSTGNLVEWFLLRKAYKRNELAPNKPDERELARRRGGYAGGYVKEPERGLWDNIVYLDFRSFAPSIIITHNVSPDTLNREGCKEYDVAPEVGHKFCKDFPGFIPSLLGDLLEERQKIKRKMKATVDPLEKKLLDYRQRLIKILANSFYGYYGYAKARWYCKECAESVTAWGREYIEMVIRELEEKFGFKVLYADTDGLHATIPGADAETVKKKAKEFLKYINPKLPGLLELEYEGFYVRGFFVTKKKYAVIDEEGKITTRGLEIVRRDWSEIAKETQARVLEAILKHGDVEEAVRIVKEVTEKLSKYEVPPEKLVIHEQITRDLRDYKATGPHVAVAKRLAARGVKIRPGTVISYIVLKGSGRIGDRAIPADEFDPTKHRYDAEYYIENQVLPAVERILKAFGYRKEDLRYQKTKQVGLGAWLKVKGKK | 5.5 min |  | 
4 | CAA: 9° N DM-derived polymerase with amino acids 408-410 CAA (protein, UniProt Q56366 1-775, looked up, variant D141A E143A L408C Y409A P410A A485L) DNA polymerase: MILDTDYITENGKPVIRVFKKENGEFKIEYDRTFEPYFYALLKDDSAIEDVKKVTAKRHGTVVKVKRAEKVQKKFLGRPIEVWKLYFNHPQDVPAIRDRIRAHPAVVDIYEYDIPFAKRYLIDKGLIPMEGDEELTMLAFAIATLYHEGEEFGTGPILMISYADGSEARVITWKKIDLPYVDVVSTEKEMIKRFLRVVREKDPDVLITYNGDNFDFAYLKKRCEELGIKFTLGRDGSEPKIQRMGDRFAVEVKGRIHFDLYPVIRRTINLPTYTLEAVYEAVFGKPKEKVYAEEIAQAWESGEGLERVARYSMEDAKVTYELGREFFPMEAQLSRLIGQSLWDVSRSSTGNLVEWFLLRKAYKRNELAPNKPDERELARRRGGYAGGYVKEPERGLWDNIVYLDFRSCAASIIITHNVSPDTLNREGCKEYDVAPEVGHKFCKDFPGFIPSLLGDLLEERQKIKRKMKATVDPLEKKLLDYRQRLIKILANSFYGYYGYAKARWYCKECAESVTAWGREYIEMVIRELEEKFGFKVLYADTDGLHATIPGADAETVKKKAKEFLKYINPKLPGLLELEYEGFYVRGFFVTKKKYAVIDEEGKITTRGLEIVRRDWSEIAKETQARVLEAILKHGDVEEAVRIVKEVTEKLSKYEVPPEKLVIHEQITRDLRDYKATGPHVAVAKRLAARGVKIRPGTVISYIVLKGSGRIGDRAIPADEFDPTKHRYDAEYYIENQVLPAVERILKAFGYRKEDLRYQKTKQVGLGAWLKVKGKK | 15 min |  | 
5 | 9° N DM: 9° N (-exo) Y409V/A485L double mutant control polymerase; SEQ ID NO: 15 (protein, 9oN polymerase (exo-) with Y409V and A485L mutations) MILDTDYITENGKPVIRVFKKENGEFKIEYDRTFEPYFYALLKDDSAIEDVKKVTAKRHGTVVKVKRAEKVQKKFLGRPIEVWKLYFNHPQDVPAIRDRIRAHPAVVDIYEYDIPFAKRYLIDKGLIPMEGDEELTMLAFAIATLYHEGEEFGTGPILMISYADGSEARVITWKKIDLPYVDVVSTEKEMIKRFLRVVREKDPDVLITYNGDNFDFAYLKKRCEELGIKFTLGRDGSEPKIQRMGDRFAVEVKGRIHFDLYPVIRRTINLPTYTLEAVYEAVFGKPKEKVYAEEIAQAWESGEGLERVARYSMEDAKVTYELGREFFPMEAQLSRLIGQSLWDVSRSSTGNLVEWFLLRKAYKRNELAPNKPDERELARRRGGYAGGYVKEPERGLWDNIVYLDFRSLVPSIIITHNVSPDTLNREGCKEYDVAPEVGHKFCKDFPGFIPSLLGDLLEERQKIKRKMKATVDPLEKKLLDYRQRLIKILANSFYGYYGYAKARWYCKECAESVTAWGREYIEMVIRELEEKFGFKVLYADTDGLHATIPGADAETVKKKAKEFLKYINPKLPGLLELEYEGFYVRGFFVTKKKYAVIDEEGKITTRGLEIVRRDWSEIAKETQARVLEAILKHGDVEEAVRIVKEVTEKLSKYEVPPEKLVIHEQITRDLRDYKATGPHVAVAKRLAARGVKIRPGTVISYIVLKGSGRIGDRAIPADEFDPTKHRYDAEYYIENQVLPAVERILKAFGYRKEDLRYQKTKQVGLGAWLKVKGKK | no product conversion under these |  | no product conversion under these
